Experimental data taken from EP1314779B1.
Where two headings read alike, the source gives them in different places.

What was measured:
[1] = molecular target: proEGF on the surface of NCI-H292 cell membranes (human) (UniProt P01133); test: flow cytometry on NCI-H292 cells, background staining with normal mouse IgG1
[2] = molecular target: proEGF on the surface of NCI-H292 cell membranes (human) (UniProt P01133); test: as above; remark: listed apart in the source

UniProt P01133, sequence (P01133 23-1207): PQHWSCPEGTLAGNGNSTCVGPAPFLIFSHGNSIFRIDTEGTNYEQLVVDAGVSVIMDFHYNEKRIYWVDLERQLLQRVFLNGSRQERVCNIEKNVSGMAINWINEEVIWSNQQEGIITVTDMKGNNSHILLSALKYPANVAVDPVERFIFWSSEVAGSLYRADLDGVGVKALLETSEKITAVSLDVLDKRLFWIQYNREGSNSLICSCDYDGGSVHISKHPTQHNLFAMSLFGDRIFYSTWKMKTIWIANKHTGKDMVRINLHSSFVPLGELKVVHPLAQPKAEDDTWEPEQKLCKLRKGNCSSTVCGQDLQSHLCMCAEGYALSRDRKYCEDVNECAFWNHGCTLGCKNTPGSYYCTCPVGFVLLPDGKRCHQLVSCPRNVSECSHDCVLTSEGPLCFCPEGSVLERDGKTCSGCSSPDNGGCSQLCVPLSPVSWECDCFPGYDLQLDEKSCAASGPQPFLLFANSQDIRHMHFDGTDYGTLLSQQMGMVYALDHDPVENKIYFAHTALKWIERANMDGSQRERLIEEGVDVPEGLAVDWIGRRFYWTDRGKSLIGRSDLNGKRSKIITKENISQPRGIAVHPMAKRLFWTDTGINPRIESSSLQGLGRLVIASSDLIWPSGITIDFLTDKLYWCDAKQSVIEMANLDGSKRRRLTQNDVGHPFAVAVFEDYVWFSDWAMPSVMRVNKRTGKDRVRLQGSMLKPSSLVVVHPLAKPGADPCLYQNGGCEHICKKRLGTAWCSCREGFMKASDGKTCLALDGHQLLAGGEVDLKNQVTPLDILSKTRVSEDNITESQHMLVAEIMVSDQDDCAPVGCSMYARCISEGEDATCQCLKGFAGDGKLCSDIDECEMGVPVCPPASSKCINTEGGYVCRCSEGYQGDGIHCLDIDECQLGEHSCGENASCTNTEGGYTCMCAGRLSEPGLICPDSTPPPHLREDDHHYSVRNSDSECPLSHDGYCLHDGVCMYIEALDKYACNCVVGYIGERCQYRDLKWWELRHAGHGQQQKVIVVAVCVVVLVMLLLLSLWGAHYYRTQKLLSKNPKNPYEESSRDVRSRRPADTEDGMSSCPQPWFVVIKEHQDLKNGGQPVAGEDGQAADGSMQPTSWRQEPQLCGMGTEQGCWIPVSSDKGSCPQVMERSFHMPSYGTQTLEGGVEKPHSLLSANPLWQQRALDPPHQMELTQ

average fluorescence intensity [1]: 8.44 | average fluorescence intensity [2]: 4.62
Substance: normal mouse IgG1 (produced by R&D Corp.) (antibody)
